The values that follow come from publication PMC7790537 (PLoS ONE, 2021).

First the molecules themselves.
B1: F11 IgA1 polymer (antibody, V domains shown)
VH: QVQLVQSGAEVKRPGSSVRVSCRTSGGSFTSFAISWVRQAPGQGLEWMGRITRILGVPNYAQKFQGRVTITADMPTTTAYLDLTNLRSEDTAVYYCARDSGTSHGDFDYWGQGTLVTVSS
VL: EIVLTQSPVTLSLSPGERATLSCRASQNVINSLVWYQQKPGQAPRLLIYGASNRATGIPARFRGSGSGTDFTLTIDSLEPEDIAVYYCQQRGTWLWSFGQGTKVEIK
B2: F11 IgA2m2 polymer (antibody, V domains shown)
VH: QVQLVQSGAEVKRPGSSVRVSCRTSGGSFTSFAISWVRQAPGQGLEWMGRITRILGVPNYAQKFQGRVTITADMPTTTAYLDLTNLRSEDTAVYYCARDSGTSHGDFDYWGQGTLVTVSS
VL: EIVLTQSPVTLSLSPGERATLSCRASQNVINSLVWYQQKPGQAPRLLIYGASNRATGIPARFRGSGSGTDFTLTIDSLEPEDIAVYYCQQRGTWLWSFGQGTKVEIK
B3: F11 IgA1 monomer (antibody, V domains shown)
VH: QVQLVQSGAEVKRPGSSVRVSCRTSGGSFTSFAISWVRQAPGQGLEWMGRITRILGVPNYAQKFQGRVTITADMPTTTAYLDLTNLRSEDTAVYYCARDSGTSHGDFDYWGQGTLVTVSS
VL: EIVLTQSPVTLSLSPGERATLSCRASQNVINSLVWYQQKPGQAPRLLIYGASNRATGIPARFRGSGSGTDFTLTIDSLEPEDIAVYYCQQRGTWLWSFGQGTKVEIK
B4: F11 IgA2m2 monomer (antibody, V domains shown)
VH: QVQLVQSGAEVKRPGSSVRVSCRTSGGSFTSFAISWVRQAPGQGLEWMGRITRILGVPNYAQKFQGRVTITADMPTTTAYLDLTNLRSEDTAVYYCARDSGTSHGDFDYWGQGTLVTVSS
VL: EIVLTQSPVTLSLSPGERATLSCRASQNVINSLVWYQQKPGQAPRLLIYGASNRATGIPARFRGSGSGTDFTLTIDSLEPEDIAVYYCQQRGTWLWSFGQGTKVEIK

The target of the experiment is recombinant trimeric HA of A/Puerto Rico/8/1934 (H1N1) (influenza A virus A/Puerto Rico/8/1934 …, UniProt P03452). The experiment in a line: cell-based or functional assay.
Sequence of recombinant trimeric HA of A/Puerto Rico/8/1934 (H1N1) (P03452 18-528): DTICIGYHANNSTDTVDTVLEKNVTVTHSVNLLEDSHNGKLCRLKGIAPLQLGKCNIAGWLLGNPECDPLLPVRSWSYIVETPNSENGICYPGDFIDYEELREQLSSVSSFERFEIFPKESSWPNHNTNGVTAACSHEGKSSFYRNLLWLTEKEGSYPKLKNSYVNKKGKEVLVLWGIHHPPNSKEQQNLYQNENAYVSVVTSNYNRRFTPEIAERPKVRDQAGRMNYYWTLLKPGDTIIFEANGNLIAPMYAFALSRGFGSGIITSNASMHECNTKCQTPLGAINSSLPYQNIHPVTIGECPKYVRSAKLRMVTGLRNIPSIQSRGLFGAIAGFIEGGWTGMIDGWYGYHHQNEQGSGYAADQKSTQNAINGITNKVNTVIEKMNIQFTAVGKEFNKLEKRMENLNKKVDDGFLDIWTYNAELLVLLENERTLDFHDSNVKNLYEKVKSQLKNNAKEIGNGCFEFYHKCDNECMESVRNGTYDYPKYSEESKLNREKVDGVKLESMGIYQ
Take B1: the “HI activity, minimum HI concentration, PR8 virus” value was determined as 500 µg/mL; the “NI activity, EC50 (NI-ELLA), PR8 virus” value came out at 0.222 µg/mL; the “NT activity, minimum virus-neutralizing concentration, PR8 virus” value came to 25 µg/mL.
In the same order, the values of B2 are 500 µg/mL, 0.418 µg/mL and 50 µg/mL.
The like results for B3 were, in that order, 354 µg/mL, 0.301 µg/mL and 50 µg/mL.
In the same order, the values of B4 are 500 µg/mL, 0.683 µg/mL and 89.1 µg/mL.
